According to patent US20220332804A1 (CSL INNOVATION, published 2022):

Key:
Assay in all cases: SPR, antibody captured, C2 as analyte;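 also: biacore at 37 °C, anti-C2 mAbs held by immobilised goat anti-human IgG, C2 alanine or serine mutants injected, double-referenced sensorgrams fitted to a 1:1 kinetic or steady-state model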
human C2 S473A = target: T1, human C2 S473A (human, UniProt P06681 21-752)
T1 sequence: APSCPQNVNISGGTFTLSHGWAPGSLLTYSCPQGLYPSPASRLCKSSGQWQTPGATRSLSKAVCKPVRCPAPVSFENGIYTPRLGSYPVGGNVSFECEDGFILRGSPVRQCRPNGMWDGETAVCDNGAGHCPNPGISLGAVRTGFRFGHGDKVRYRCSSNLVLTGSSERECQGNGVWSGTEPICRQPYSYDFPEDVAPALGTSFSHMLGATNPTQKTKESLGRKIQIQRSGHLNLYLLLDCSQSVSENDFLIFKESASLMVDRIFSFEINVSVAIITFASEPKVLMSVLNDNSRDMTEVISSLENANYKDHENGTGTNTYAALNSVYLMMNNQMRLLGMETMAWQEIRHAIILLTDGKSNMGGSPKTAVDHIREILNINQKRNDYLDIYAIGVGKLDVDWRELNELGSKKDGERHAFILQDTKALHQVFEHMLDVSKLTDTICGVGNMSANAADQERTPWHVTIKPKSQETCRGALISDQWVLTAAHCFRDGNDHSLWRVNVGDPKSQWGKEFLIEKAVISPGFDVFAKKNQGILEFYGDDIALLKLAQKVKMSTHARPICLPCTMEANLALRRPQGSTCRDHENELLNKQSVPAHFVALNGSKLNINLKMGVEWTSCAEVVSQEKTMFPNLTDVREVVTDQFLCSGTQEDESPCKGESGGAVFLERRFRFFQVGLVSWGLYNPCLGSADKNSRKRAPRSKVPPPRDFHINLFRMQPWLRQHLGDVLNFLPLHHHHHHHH

human C2 E324A = target: T2, human C2 E324A (human, UniProt P06681 21-752)
T2 sequence: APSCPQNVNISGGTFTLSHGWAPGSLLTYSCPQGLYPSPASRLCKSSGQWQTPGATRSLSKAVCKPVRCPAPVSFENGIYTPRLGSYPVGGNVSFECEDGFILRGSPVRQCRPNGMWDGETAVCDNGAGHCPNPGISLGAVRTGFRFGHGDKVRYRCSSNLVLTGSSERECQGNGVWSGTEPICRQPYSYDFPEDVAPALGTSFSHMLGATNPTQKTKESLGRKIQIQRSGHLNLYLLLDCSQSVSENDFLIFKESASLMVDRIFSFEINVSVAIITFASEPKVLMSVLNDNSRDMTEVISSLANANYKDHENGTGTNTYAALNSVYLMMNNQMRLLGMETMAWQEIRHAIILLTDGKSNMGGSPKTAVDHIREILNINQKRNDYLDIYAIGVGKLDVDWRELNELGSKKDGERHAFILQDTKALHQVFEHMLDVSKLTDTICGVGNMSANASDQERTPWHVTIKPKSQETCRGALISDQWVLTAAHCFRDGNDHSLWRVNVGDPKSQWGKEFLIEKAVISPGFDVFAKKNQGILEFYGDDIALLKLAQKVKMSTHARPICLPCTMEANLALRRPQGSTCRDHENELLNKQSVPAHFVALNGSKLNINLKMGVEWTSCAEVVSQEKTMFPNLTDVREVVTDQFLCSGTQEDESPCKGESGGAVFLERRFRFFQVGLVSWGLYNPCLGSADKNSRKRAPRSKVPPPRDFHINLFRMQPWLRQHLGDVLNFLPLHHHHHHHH

human C2 N467A = target: T3, human C2 N467A (human, UniProt P06681 21-752)
T3 sequence: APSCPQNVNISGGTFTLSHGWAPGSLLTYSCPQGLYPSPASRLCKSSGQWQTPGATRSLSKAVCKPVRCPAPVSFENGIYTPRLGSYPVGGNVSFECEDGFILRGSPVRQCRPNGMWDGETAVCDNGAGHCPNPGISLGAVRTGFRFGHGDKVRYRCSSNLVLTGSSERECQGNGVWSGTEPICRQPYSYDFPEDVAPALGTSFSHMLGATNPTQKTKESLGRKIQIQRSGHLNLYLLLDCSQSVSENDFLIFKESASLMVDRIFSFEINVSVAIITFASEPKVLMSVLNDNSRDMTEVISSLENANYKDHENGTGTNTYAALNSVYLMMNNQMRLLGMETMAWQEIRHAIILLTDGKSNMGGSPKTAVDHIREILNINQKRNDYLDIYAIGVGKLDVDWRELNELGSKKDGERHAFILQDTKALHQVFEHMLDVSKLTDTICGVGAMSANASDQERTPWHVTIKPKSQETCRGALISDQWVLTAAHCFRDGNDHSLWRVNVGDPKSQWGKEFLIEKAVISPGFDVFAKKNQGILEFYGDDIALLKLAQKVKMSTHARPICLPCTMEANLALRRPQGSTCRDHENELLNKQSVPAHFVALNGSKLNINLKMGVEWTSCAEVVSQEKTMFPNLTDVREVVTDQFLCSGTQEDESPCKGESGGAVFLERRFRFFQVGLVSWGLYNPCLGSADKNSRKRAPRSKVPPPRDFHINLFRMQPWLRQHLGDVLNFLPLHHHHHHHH

human C2 T442A = target: T4, human C2 T442A (human, UniProt P06681 21-752)
T4 sequence: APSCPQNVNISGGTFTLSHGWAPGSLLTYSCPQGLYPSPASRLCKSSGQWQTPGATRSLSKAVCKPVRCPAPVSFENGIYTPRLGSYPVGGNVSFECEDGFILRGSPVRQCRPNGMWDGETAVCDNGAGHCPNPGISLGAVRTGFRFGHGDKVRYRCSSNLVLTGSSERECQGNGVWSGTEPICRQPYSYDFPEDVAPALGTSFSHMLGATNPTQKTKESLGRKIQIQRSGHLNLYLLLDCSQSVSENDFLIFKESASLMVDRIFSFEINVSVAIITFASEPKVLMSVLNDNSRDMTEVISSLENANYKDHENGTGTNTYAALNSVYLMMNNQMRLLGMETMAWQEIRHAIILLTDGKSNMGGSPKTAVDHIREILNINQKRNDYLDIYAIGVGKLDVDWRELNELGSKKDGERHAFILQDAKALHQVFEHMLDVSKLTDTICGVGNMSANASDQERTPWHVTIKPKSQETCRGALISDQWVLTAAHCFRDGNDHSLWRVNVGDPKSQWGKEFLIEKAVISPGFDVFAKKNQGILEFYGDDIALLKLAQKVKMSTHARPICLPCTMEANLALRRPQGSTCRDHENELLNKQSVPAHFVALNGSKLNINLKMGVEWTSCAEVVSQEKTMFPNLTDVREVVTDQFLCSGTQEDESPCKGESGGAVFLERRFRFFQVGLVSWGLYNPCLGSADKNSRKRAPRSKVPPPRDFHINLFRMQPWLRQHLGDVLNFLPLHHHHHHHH

B1: RF16-242 (antibody, human IgG4 S228P, lambda, V domains shown)
VH: EVQLLQSGAEVKKPGESLKISCKGSGYSFTSYWIGWVRQMPGKGLEWMGIIYPGDSDTRYSPSFQGQVTISADKSISTAYLQWSSLKASDTAMYYCARRGHYGDYFDYWGQGTLVTVSS
VL: SYELTQPPSVSVSPGQTARITCSGDALPKKYAYWYHQKSGQAPVLVIYEDRRRPSEIPERFSGSSSGTMATLTITGAQVEDEGVYFCYSRDRAGNQRVFGGGTQLTVLG
notes: pH-dependent anti-C2 antibody from a phage display library
Kd (human C2 S473A): 15.5 nM | Kd (human C2 E324A): 10.7 nM | Kd (human C2 N467A): 13.4 nM | Kd (human C2 T442A): 18 nM
